Experimental data as given in patent US20130130320, “ENZYMES” (published 2013).

T1: TGK (TgoT Y409G E664K) (Thermococcus gorgonarius, UniProt P56689 SEQ:1-773, Y409G,E664K)
T1 sequence: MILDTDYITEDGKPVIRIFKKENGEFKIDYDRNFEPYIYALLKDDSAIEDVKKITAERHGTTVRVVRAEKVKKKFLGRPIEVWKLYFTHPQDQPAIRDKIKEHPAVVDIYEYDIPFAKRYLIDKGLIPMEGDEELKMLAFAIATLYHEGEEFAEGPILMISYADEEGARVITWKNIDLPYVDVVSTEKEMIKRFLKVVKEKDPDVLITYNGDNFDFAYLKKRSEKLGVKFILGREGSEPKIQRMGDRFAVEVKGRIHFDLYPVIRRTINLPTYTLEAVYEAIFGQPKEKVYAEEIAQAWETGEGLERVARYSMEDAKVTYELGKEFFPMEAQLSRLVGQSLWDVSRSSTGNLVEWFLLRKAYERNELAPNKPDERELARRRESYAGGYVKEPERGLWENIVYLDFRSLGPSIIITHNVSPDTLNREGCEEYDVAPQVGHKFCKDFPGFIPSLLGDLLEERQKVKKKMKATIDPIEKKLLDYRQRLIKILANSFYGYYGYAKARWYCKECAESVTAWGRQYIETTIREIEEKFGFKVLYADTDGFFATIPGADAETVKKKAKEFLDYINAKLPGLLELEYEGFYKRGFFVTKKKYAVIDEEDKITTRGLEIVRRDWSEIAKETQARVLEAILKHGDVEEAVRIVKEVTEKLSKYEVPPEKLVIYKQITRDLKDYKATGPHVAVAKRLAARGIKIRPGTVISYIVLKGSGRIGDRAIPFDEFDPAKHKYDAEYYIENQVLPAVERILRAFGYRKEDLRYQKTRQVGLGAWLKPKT


How the values were obtained:
Tat (HIV-1?) = assay: competition
TGK (TgoT Y409G E664K) = molecular target: T1, TGK (TgoT Y409G E664K); assay: EMSA; second gate mutation vs parental E664; individual mutants and Kd values not stated; Thermopol, 1 mM EDTA; conditions: label: 5'-FITC primer, 5'-biotin template, 5' template overhang
Protocol: The reactions were mixed, heated to 94° C. for 30 sec and cooled at 0.1° C./sec to 4° C. before loading onto precooled 6% TBE gel (Invitrogen) and run for 1 h at 100V in precooled 1×TBE. Bands were quantified using a Typhoon Trio and ImageQuant and the shift fitted to y=(Bmax*x)/(Kd+x) using MatLab (The MathWorks Ltd).

Molecule	IC50 (Tat (HIV-1?); IC50 of HNA aptamer T5S8-7 displacing Tat from immobilised miniTAR (CI95 1.3-2.8)) [µM]	IC50 (Tat (HIV-1?); IC50 of RNA aptamer R06 displacing Tat from immobilised miniTAR (CI95 166-675)) [µM]	binding result (TGK (TgoT Y409G E664K))
miniTAR RNA	0.0019	0.313	–
K0 DNA primer / TempK4 (dsDNA) DNA 1: GCACGGCAGCACGTG DNA 2: ACTGCGATGACTGTACTCGTCTAGTAGCACTGCACGTGCTGCCGTGC	–	–	binds
